Laboratory results from publication PMC11904782, “Armadillo domain of ARID1A directly interacts with DNA-PKcs to couple chromatin remodeling with nonhomologous end joining (NHEJ) pathway” (Nucleic Acids Research, 2025).

B1: wild-type GST–DNA–PKcs (3552–3691 aa) (domain or fragment, UniProt P78527 3552-3691, looked up)
chain: KEFVARIKSKLDQGGVIQDFINALDQLSNPELLFKDWSNDVRAELAKTPVNKKNIEKMYERMYAALGDPKAPGLGAFRRKFIQTFGKEFDKHFGKGGSKLLRMKLSDFNDITNMLLLKMNKDSKPPGNLKECSPWMSDFK
notes: DNA-PKcs residues 3552-3691; also called recombinant wild-type DNA-PKcs; longer amino acid region (3552–3691 aa)
B2: GST-POLB (7–53 aa) (domain or fragment)
chain: not shown
notes: DNA polymerase beta residues 7-53; Printed as GAT-POLB in the methods; also called GAT-POLB (7–53 aa); recombinant POLB
B3: GST–DNA–PKcs ARID1A-binding region (3615–3660 aa), wild type (domain or fragment, UniProt P78527 3615-3660, looked up)
chain: AALGDPKAPGLGAFRRKFIQTFGKEFDKHFGKGGSKLLRMKLSDFN
notes: DNA-PKcs residues 3615-3660, printed as 45 amino acids
B4: His–ARID1A–ARM domain (1914–2285 aa) (domain or fragment, UniProt O14497 1914-2285, looked up)
chain: MLSTRSSTLTEDGAKSSEAIKESSKFPFGISPAQSHRNIKILEDEPHSKDETPLCTLLDWQDSLAKRCVCVSNTIRSLSFVPGNDFEMSKHPGLLLILGKLILLHHKHPERKQAPLTYEKEEEQDQGVSCNKVEWWWDCLEMLRENTLVTLANISGQLDLSPYPESICLPVLDGLLHWAVCPSAEAQDPFSTLGPNAVLSPQRLVLETLSKLSIQDNNVDLILATPPFSRLEKLYSTMVRFLSDRKNPVCREMAVVLLANLAQGDSLAARAIAVQKGSIGNLLGFLEDSLAATQFQQSQASLLHMQNPPFEPTSVDMMRRAARALLALAKVDENHSEFTLYESRLLDISVSPLMNSLVSQVICDVLFLIGQS
notes: ARID1A residues 1914-2285 (ARM domain); Limits are printed for the BLI ligand; also called His-tagged ARM domain of ARID1A
B5: GST-EZH2-C: aa 598–746 (domain or fragment)
chain: not shown
notes: enhancer of zeste 2 PRC2 subunit 2 (EZH2) residues 598-746

How the values were obtained:
Settings in all cases: both partners purified
[1] = target: B4; assay: BLI; Octet Red K2; His–ARID1A–ARM domain immobilised on NTA biosensors; GST recombinant proteins as analytes in serial dilutions
[2] = target: B4; assay: far-Western, overlay or dot blot; GST-fusion proteins separated by SDS–PAGE, transferred to PVDF, renatured through falling guanidine–HCl, incubated with His–ARID1A–ARM overnight at 4°C, probed with anti-His-tag antibody
[3] = target: T1, GST-DNTT: aa 1–509 (UniProt P04053 1-509); assay: as above
T1 construct: DNA nucleotidylexotransferase (DNTT) residues 1-509; also called DNA nucleotidylexotransferase
T1 sequence (P04053 whole entry, the tested form may be a part): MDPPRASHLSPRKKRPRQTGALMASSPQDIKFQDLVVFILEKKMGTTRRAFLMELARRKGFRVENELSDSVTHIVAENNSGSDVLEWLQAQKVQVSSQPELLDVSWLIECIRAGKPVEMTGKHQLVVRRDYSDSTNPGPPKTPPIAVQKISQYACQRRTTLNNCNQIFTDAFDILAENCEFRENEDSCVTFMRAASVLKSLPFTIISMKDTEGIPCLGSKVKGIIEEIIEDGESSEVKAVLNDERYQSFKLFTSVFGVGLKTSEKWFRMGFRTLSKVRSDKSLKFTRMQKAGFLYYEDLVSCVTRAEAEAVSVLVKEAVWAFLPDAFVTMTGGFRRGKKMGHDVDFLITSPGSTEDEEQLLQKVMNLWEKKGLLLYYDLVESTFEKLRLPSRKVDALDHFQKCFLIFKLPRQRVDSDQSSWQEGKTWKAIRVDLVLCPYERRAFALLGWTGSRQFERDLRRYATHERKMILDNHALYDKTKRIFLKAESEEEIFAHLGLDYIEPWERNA

binding result [1]	binding result [2]	Binder	also measured
binds		B1	
binds		B2	
	binds	B3	
		B4	binding result [3]: binds
	binds	B5	
